Data set [1] is described as follows: melting temperature (DSF); higher = more thermostable. A digest of the protocol: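 On a Bio-Rad CFX96, fluorescence of 45 μL enzyme (0 to 0.3 mg/mL) mixed with 5 μL 5X Sypro Orange in sealed PCR plates was followed from 25 °C through 250 cycles of 0.3 °C, with a 0.3 °C/s ramp. The enzymes had been expressed in E. coli C41(DE3), taken up on nickel beads and released by SUMO protease. Melting temperature, measured by differential scanning fluorimetry, is the value given.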

Data set [2] is described as follows: purified protein yield per well (BCA); higher = higher soluble expression. The method, boiled down:
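The measured quantity is purified protein yield per well, determined with the Pierce Rapid Gold BCA kit. Anything below 25 ug (0.1 mg/mL) lies under the detection threshold. Enzymes were expressed in E. coli C41(DE3) in 2 mL autoinduction cultures with 100 µg/mL kanamycin at 37 °C for 2 h, then 18 °C for 40 h, and purified on an OT-2 robot using Ni-charged magnetic beads and SUMO protease release.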

The nature of data set [3]: PET hydrolysis, aromatic products released after 48 h (umol product/mg enzyme); higher = more PET depolymerization activity. The method, boiled down: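 Reactions ran in sealed plates without shaking for 48 h at 40 or 60 °C. Each held 3.5 mg amorphous PET film or crystalline PET powder, 450 μL buffer and 5 μg (50 μL) of tagless, SUMO-cleaved, nickel-purified candidate enzyme. Buffers were 50 mM NaCitrate at pH 4.5 or 5.5, 50 mM NaPhosphate at pH 6.5 or 7.5, and glycine at pH 8.5. The supernatant's aromatic product, read at 260 and 280 nm against buffer blanks, gives PET hydrolysis activity per mg enzyme.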

Where [4] appears, read: substrate: cryPow, 40 °C, pH 5.5.
[5] abbreviates: substrate: cryPow, 40 °C, pH 6.5.
Where [6] appears, read: substrate: cryPow, 40 °C, pH 7.5.
Setting [7] is: substrate: cryPow, 40 °C, pH 8.5.
Setting [8] is: substrate: cryPow, 60 °C, pH 5.5.
Where [9] appears, read: substrate: cryPow, 60 °C, pH 6.5.
The mark [10] stands for this setting: substrate: cryPow, 60 °C, pH 7.5.
Setting [11] is: substrate: cryPow, 60 °C, pH 8.5.
Where [12] appears, read: substrate: cryPow, 40 °C, pH 4.5.

± gives the standard deviation of the averaged measurements.

“ANPYERGPDPTLASVEATSGTFAYASLSVSSGNGFGGGTIYYPTSTTDGTFAGIVTCPGFTNSGSSMAWFGKVLASQGFVTLVMNPKSNLDFPDARATQMLAALDWLTNSSSVKTRIDATRLGVLGQSMGGGATLKASKTRPSLKASFATAPYNSDKDWSTNTVPQFLFGMQNDTTAAVTNHALKFYNSLPATTPKIYAELRGAGHSTATSPNTSIRRYAVSFMKRNLDNDTRYSQFLCPGPTITSSSPLSAFMSNCLF [DP080]”: the melting temperature in data set [1] worked out at 63.1 C. Further, the “purified protein yield per well” value in data set [2] worked out at 291 µg. In addition, the PET hydrolysis in data set [3] (substrate: aFilm, 40 °C, pH 5.5) is below 3; in data set [3] (substrate: aFilm, 40 °C, pH 6.5), below 3; in data set [3] (substrate: aFilm, 40 °C, pH 7.5), below 3; in data set [3] (substrate: aFilm, 40 °C, pH 8.5) it was 1.5 ± 2.1; in data set [3] (substrate: aFilm, 60 °C, pH 5.5), below 3; in data set [3] (substrate: aFilm, 60 °C, pH 6.5) it was below 3. For the same sequence, the PET hydrolysis was below 3 in data set [3] (substrate: aFilm, 60 °C, pH 7.5); below 3 in data set [3] (substrate: aFilm, 60 °C, pH 8.5); below 3 in data set [3] (setting [4]); 2 ± 2.8 in data set [3] (setting [5]); 6 in data set [3] (setting [6]); 8 ± 1.4 in data set [3] (setting [7]). Further, the PET hydrolysis in data set [3] (setting [8]), in data set [3] (setting [9]), in data set [3] (setting [10]) and in data set [3] (setting [11]) was below 3 in each case.
In data set [1], “SAQVTRQAAGSYARGPAPTLAGIRAALGPFAYSTVTVTAAQAGGAFGGGTIYYPDDTSQGTFGGVAAVPGYQSAEKAVAWLGPRLASQGFVVITIATNGLTDQPTARGKQLLGALDYLTAQSPAAVRQRLDPNRLAVTGHSMGGGGTLYAAWTRPSLKAAVPLAPWHTIKNWSGITVPTLVQGGTQDTTAQVGTFAEPIYQSLTGARERAYAEIADAAHGTFVRENPLIGALEVAWLKRFVDDDGRYEQFLCPAPADSELTEYRDSCPSS [DP009]” came in with a melting temperature of 46.9 C. In data set [2], the “purified protein yield per well” value came to 165 µg. In addition, the PET hydrolysis in data set [3] (setting [4]) is 4; in data set [3] (setting [5]) it was 5; in data set [3] (setting [6]), 6; in data set [3] (setting [7]), 10; in data set [3] (setting [8]), below 3; in data set [3] (setting [9]) it was below 3. The PET hydrolysis in data set [3] (setting [10]) and in data set [3] (setting [11]) was below 3 each time.
Sequence “DEIGQAPTSSNITGNGSFSVATYNISSLVSGFGGGVAYYPTTSGRYPVIAVSPGFTARWSSISWIGPRLASWGFVVVGIETNSIYDQPGSRGSQLLAALNWAVNSAPSSVRDRVDGSRRGVAGHSMGGGGTLEALAADTTGLVKAGVPIAPWNTDTTWGGLNEAVQIVGGESDTIAPVSSHSIPFYSTLGGPKSYVELNGASHFFPQTSNSTLSRALVSWFKRYLNNDARFTPFTCGYSGLSISDFRSNNC [ESM144]” came in with a melting temperature in data set [1] of 50.2 C. For the same sequence, the “purified protein yield per well” value in data set [2] was determined as 89.1 µg. The PET hydrolysis in data set [3] (setting [12]) was below 3; in data set [3] (setting [4]), below 3; in data set [3] (setting [5]), below 3; in data set [3] (setting [6]) it was 6; in data set [3] (substrate: cryPow, 60 °C, pH 4.5) it was below 3; in data set [3] (setting [8]) it was below 3. For the same sequence, the PET hydrolysis in data set [3] (setting [9]) and in data set [3] (setting [10]) was below 3 in each case.
“ADNPYQRGPDPTQSSVSASRGTFATAQVGVPAGNGFGGGVIYHPTDTSQGTFGAVAIVPGYTATWAAEGAWMGHWLASFGFVVIGIDTNNRNDWDTARGTQLLAALDYLTQRSSVRDRVDPSRTAVMGHSMGGGGAMYAALQRPSLKTAVGLAPFSPSQNLTTTRVPTMLLSGQNDTTTTPASIVNLYNGIPSSVEKAYLELTGAGHGFPTSNNSTMMRNVIPWLKIFVDSDTRYTQFLCPLSDSNGIRTYQNTCPLVPSPVPTTTSTTSSTSTTTTSTTTTTTTSVPVGACSATYRTTNAWSGGYQGEVTVAAGDSAVNGWTVRWTLDSGQTISQVWNGTLSATGSAVSVRNASYNGSLRPGTSTTFGFIAGGAPSTPVLSCTSP [DP072]” displayed a melting temperature in data set [1] of 58 C. Further, in data set [2], the “purified protein yield per well” value is 89 µg. The PET hydrolysis in data set [3] (setting [4]) is below 3; in data set [3] (setting [5]), 8; in data set [3] (setting [6]) it was 24; in data set [3] (setting [7]), 32; in data set [3] (setting [8]) it was below 3; in data set [3] (setting [9]), below 3. In addition, the PET hydrolysis is below 3 in data set [3] (setting [10]) and 3 in data set [3] (setting [11]).
For “VEIGPNPTSTLLNGNGPFSVSSSSVSSWVSGFGGGTIYYPTASGQYGVIAVCPGYTGTSSSISWFARRLATHGFVTIAMNTNSRFDFPDSRATQLAAALNYLLNSSSSTIRSRIRTADRGVAGHSMGGGGTLRASERDSNLKVGIPLTPWHTDKTWGSLSVPQMIFGADGDTVAPASSHARTFYNSIPSSTKKAYALLNNASHFTPNSTDERIGRYGVAFAKRFVDGDTRYEPFLCGAEHSTYATSWKFDTYLSTCPYGGGSEPEPDYPWWYWWR [ESM162]”, the melting temperature in data set [1] turned out to be 69.7 C. Further, the “purified protein yield per well” value in data set [2] was 31.8 µg. For the same sequence, the PET hydrolysis in data set [3] (setting [12]), in data set [3] (setting [4]), in data set [3] (setting [5]) and in data set [3] (setting [6]) was below 3 in each case.
“VQIGPNPTKSSLEASRGPFSTSQFTVSRPSGYGAGTVYYPTNAGAKVGAIAIVPGFLSYQSSINWWGPRLASHGFVVITIDTYTTGDQPDSRSRQQLAALDQVIALGNTSSSPIYGKVDGSRTGVMGWSMGGGGSLISAKNRPSIKAAAPQAPWNTSTNFSSVTVPTLIFACQSDIVAPVISHAIPFYNSMTRNPKQYLEKTLGDHFCFNNANATVGLKGVAWMKRFVDGDTRYTSFACSNPNAFGFSDFRTARCS [ESM045]”: the melting temperature in data set [1] was 63.4 C. In data set [2], the “purified protein yield per well” value is 30.4 µg. Besides, the PET hydrolysis in data set [3] (setting [12]) worked out at 5; in data set [3] (setting [4]), 12; in data set [3] (setting [5]), 22; in data set [3] (setting [6]) it was 35.
In turn, “ALNPYQRGPDPTDALLEAPRGPFATASTTVSRLSVSGFGGGVIYYPTDTSQGTFGGIAISPGYTASWSSLDWLGPRIASHGFVVIGIDTLSRYDQPASRGRQLLAALDYLTQRSSVRGRVDASRLAVAGHSMGGGGSLEAADSRPSLQAAVPLAPWHTTKNWSGVRVPTMIIGGESDSVAPVSTHSELFYASIPASSEKAYLELNGASHFFPNTTNTTMAKSMVSWLKRFVDDDVRYDPFLCPGPDGSAVEEYRQTCPLS [TEP140]” showed a melting temperature in data set [1] of 51.4 C. For the same sequence, the “purified protein yield per well” value in data set [2] came out at 36.5 µg. The PET hydrolysis in data set [3] (setting [12]) was below 3; in data set [3] (setting [4]) it was below 3; in data set [3] (setting [5]) it was below 3; in data set [3] (setting [6]), 4.

Values taken from the supplement of paper PMC12455559.
